These results are taken from patent US20250049970A1, “DLL3 TARGETING PEPTIDES AND CONSTRUCTS THEREOF” (MARIANA ONCOLOGY INC., priority 2023, published 2025).

Test [1] deals with T1, Biotinylated target ligand human DLL3 (human, UniProt Q9NYJ7 27-492, limits assumed, biotinylated (site not stated)).
T1 sequence: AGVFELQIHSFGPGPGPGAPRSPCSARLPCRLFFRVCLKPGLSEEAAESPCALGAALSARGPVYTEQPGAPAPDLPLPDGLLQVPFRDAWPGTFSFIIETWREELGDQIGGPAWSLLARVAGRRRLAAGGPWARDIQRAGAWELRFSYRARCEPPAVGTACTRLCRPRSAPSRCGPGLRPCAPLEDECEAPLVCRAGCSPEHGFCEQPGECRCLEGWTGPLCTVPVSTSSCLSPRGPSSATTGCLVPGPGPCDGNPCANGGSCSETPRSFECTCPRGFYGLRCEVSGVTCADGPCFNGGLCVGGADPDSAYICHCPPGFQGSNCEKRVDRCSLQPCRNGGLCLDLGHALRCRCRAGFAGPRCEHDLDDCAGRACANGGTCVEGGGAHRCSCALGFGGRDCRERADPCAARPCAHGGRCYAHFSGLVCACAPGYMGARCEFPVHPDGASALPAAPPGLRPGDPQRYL
Nature of the test: SPR, biotinylated human DLL3 on streptavidin chip; B = 1.0 nM<KD<=10 nM; lower limit of grade B. How it is done: (§1) Biotinylated target ligand human DLL3 was immobilized on a streptavidin sensor chip. A reference surface was set up for nonspecific binding and refractive index changes. For analysis of the kinetics of interactions, varying concentrations of samples were injected at a flow rate of 100 μL/minute using running buffer containing 20 mM phosphate buffer with 2.7 mM KCl, 137 mM NaCl, 0.05% Surfactant P20 and 2% DMSO. Sensorgram curves were fitted with 1:1 binding model, and affinity and kinetic parameters were obtained using Biacore Insight evaluation 4.0. software.
(In general: SPR reads the build-up and loss of mass on a sensor chip optically.)

In test [2] the target is T1, Biotinylated target ligand human DLL3. Nature of the test: SPR, biotinylated human DLL3 on streptavidin chip; B = 1.0 nM<KD<=10 nM; upper limit of grade B. How it is done:
as §1

Bridges are numbered along the chain shown (N, C = ends).

As usually defined, the Kd is the constant that tells how readily two partners part at equilibrium. Read a low Kd as higher affinity. Take Ac-MWTICNNWHDCWP-NH2 (disulfide 5-11) [Cpd No. 1]: the Kd in test [1] was over 1 nM; in test [2] it was at most 10 nM.
